Laboratory results: article PMC7323458 (Nature chemical biology, 2019)

T1: β-ketoacyl-ACP-synthase I (FabB) (E. coli, UniProt P0A953 1-406)
T1 sequence: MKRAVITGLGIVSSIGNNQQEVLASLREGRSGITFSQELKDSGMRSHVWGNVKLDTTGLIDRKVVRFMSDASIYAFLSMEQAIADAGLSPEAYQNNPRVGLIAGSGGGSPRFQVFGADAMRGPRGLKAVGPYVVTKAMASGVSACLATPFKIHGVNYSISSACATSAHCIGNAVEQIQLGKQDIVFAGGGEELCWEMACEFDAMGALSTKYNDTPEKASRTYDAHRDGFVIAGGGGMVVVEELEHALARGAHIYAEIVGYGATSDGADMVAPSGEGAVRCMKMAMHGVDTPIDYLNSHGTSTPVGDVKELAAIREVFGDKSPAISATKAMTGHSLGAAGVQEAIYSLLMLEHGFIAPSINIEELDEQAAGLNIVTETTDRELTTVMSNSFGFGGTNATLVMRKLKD


Target: T1, β-ketoacyl-ACP-synthase I (FabB)
Assay: NMR titration

Binder | Kd [µM]
wt C8-AcpP (octanoyl-AcpP) (natural protein, E. coli, amide-linked octanoyl (C8) pantetheine probe on the phosphopantetheine serine (S36); 15N, 2H labelled) MSTIEERVKKIIGEQLGVKQEEVTNNASFVEDLGADSLDTVELVMALEEEFDTEIPDEEAEKITTVQAAIDYINGHQA | 37.6
D38A C8-AcpP (natural protein, E. coli, amide-linked octanoyl (C8) pantetheine probe on the phosphopantetheine serine (S36); 15N, 2H labelled) MSTIEERVKKIIGEQLGVKQEEVTNNASFVEDLGADSLATVELVMALEEEFDTEIPDEEAEKITTVQAAIDYINGHQA | 167
